Experimental findings from patent US7057012B1, “PTH functional domain conjugate peptides, derivatives thereof and novel tethered ligand-receptor molecules” (The General Hospital Corporation, priority 1998, dated 2006) are described below.

In experiment [1] the test system is COS-7 cells. The experiment is described as follows: basal cAMP signaling of tethered ligand/receptor constructs in transiently transfected COS-7 cells. Format: cell-based. As to conditions: for level of basal cAMP signaling: no agonist. Here is the method:
(§1) Cell Culture: COS-7 cells were cultured at 37° C. in T-75 flasks ([…] in Dulbecco's modified Eagle's medium (DMEM) supplemented with fetal bovine serum (10%), penicillin G (20 units/ml), streptomycin sulfate (20 μg/ml) and amphotericin B (0.05 μg/ml) in a humidified atmosphere containing 5% CO2. Cells were sub-cultured in 24-well plates and, when confluent, were treated with fresh media and shifted to 33° C. for 12 to 24 h prior to the assay (Bergwitz, C., et al., J. Biol. Chem. 272:28861–28868 (1997); Abell, A., et al., J. Biol. Chem. 271:4518–4527 (1996)).
PTH Receptor mutagenesis and COS-7 cell expression: The pcDNA-1-based plasmid encoding the intact HPTH-1 receptor (HK-WT in reference (Schipani, E., et al., Endocrinol. 132:2157–2165 (1993)) and herein called hP1R-WT) was used for studies in COS-7 cells. The truncated human PTH-1 receptor (hP1R-de1Nt) (FIG. 18) was constructed from the HK-WT plasmid by oligonucleotide-directed mutagenesis (Kunkel, T. A., Proc. Natl. Acad. Sci. USA 82:488–492 (1985)). This mutant receptor is deleted for residues 24 to 181 and, assuming that signal peptidase cleavage occurs between Ala^22 and Tyr^23 (Nielsen, H., et al., Protein Engineering 10:1–6 (1997)), is predicted to have Tyr^23 as the N-terminal residue joined directly to Glu^182 located at or near the boundary of the first transmembrane domain. A similarly truncated rat PTH receptor was described by us previously (Luck, M., et al., Molec. Endocrinol. 13:670–680 (1999)). The tethered human PTH-1 receptor [hP1R-Tether(1–9)] (hTether-1 in FIG. 17) is based on the hP1R-de1NT construct, and has PTH(1–9) and a four glycine spacer (AVSEIQLMHGGGG) (SEQ ID NO: 72) inserted between residues 23 and 182. Assuming that signal peptidase cleavage occurs between Ala^22 and Tyr^23, hP1R-Tether(1–9) is predicted to have Tyr^23 as the N-terminal residue joined directly to Ala of the ligand. Analogs of hP1R-Tether(1–9) were made in a similar fashion. Transient transfections of COS-7 cells were performed using DEAE-dextran and 200 ng of cesium chloride-purified plasmid DNA per well of a 24-well plate, as described previously (Bergwitz, C., et al., J. Biol. Chem. 272:28861–28868 (1997)).
cAMP Stimulation: Stimulation of cells with peptide analogs was performed in 24-well plates. Cells were rinsed with 0.5 mL of binding buffer (50 mM Tris-HCl, 100 mM NaCl, 5 mM KCl, 2 mM CaCl2, 5% heat-inactivated horse serum, 0.5% fetal bovine serum, adjusted to pH 7.7 with HCl) and treated with 200 μL of cAMP assay buffer (Dulbecco's modified Eagle's medium containing 2 mM 3-isobutyl-1-methylxanthine, 1 mg/mL bovine serum albumin, 35 mM Hepes-NaOH, pH 7.4) and 100 μL of binding buffer containing varying amounts of peptide analog (final volume=300 μL). The medium was removed after incubation for 1 h at room temperature, and the cells were frozen (−80° C.), lysed with 0.5 mL 50 mM HCl, and refrozen (−80° C.). The cAMP content of the diluted lysate was determined by radioimmunoassay.

The test system of experiment [2] is COS-7 cells. The experiment in a line: agonist-induced cAMP signaling of receptor constructs in transiently transfected COS-7 cells. Format: cell-based. Here is the method:
as §1
PTH Receptor mutagenesis and COS-7 cell expression: The pcDNA-1-based plasmid encoding the intact HPTH-1 receptor (HK-WT in reference (Schipani, E., et al., Endocrinol. 132:2157–2165 (1993)) and herein called hP1R-WT) was used for studies in COS-7 cells. The truncated human PTH-1 receptor (hP1R-de1Nt) (FIG. 18) was constructed from the HK-WT plasmid by oligonucleotide-directed mutagenesis (Kunkel, T. A., Proc. Natl. Acad. Sci. USA 82:488–492 (1985)). […]
cAMP Stimulation: Stimulation of cells with peptide analogs was performed in 24-well plates. […] The cAMP content of the diluted lysate was determined by radioimmunoassay.

Read-outs that look alike come from different tables or passages of the source.

B1: hP1R-Tether(1–11): hP1R-Tether construct with the ligand chain extended to position 11, native leucine at 11 (protein)
chain: EIQLMHNLGGGGEVFDRLGMIYTVGYSVSLASLTVAVLILAYFRRLHCTRNYIHMHLFLSFMLRAVSIFVKDAVLYSGATLDEAERLTEEELRAIAQAPPPPATAAAGYAGCRVAVTFFLYFLATNYYWILVEGLYLHSLIFMAFFSEKKYLWGFTVFGWGLPAVFVAVWVSVRATLANTGCWDLSSGNKKWIIQVPILASIVLNFILFINIVRVLATKLRETNAGRCDTRQQYRKLLKSTLVLMPLFGVHYIVFMATPYTEVSGTLWQVQMHYEMLFNSFQGFFVAIIYCFCNGEVQAEIKKSWSRWTLALDFKRKARSGSSSYSYGPMVSHTSVTNVGPRVGLGLPLSPRLLPTATTNGHPQLPGHAKPGTPALETLETTPPAMAAPKDDGFLNGSCSGLDEEASGPERPPALLQEEWETVM
For the molecule B1, the “level of basal cAMP signaling” value in the experiment on COS-7 cells [1] was “moderate, but significant, improvements”.

B2: hP1R-WT: intact human PTH-1 receptor (protein)
chain: DADDVMTKEEQIFLLHRAQAQCEKRLKEVLQRPASIMESDKGWTSASTSGKPRKDKASGKLYPESEEDKEAPTGSRYRGRPCLPEWDHILCWPLGAPGEVVAVPCPDYIYDFNHKGHAYRRCDRNGSWELVPGHNRTWANYSECVKFLTNETREREVFDRLGMIYTVGYSVSLASLTVAVLILAYFRRLHCTRNYIHMHLFLSFMLRAVSIFVKDAVLYSGATLDEAERLTEEELRAIAQAPPPPATAAAGYAGCRVAVTFFLYFLATNYYWILVEGLYLHSLIFMAFFSEKKYLWGFTVFGWGLPAVFVAVWVSVRATLANTGCWDLSSGNKKWIIQVPILASIVLNFILFINIVRVLATKLRETNAGRCDTRQQYRKLLKSTLVLMPLFGVHYIVFMATPYTEVSGTLWQVQMHYEMLFNSFQGFFVAIIYCFCNGEVQAEIKKSWSRWTLALDFKRKARSGSSSYSYGPMVSHTSVTNVGPRVGLGLPLSPRLLPTATTNGHPQLPGHAKPGTPALETLETTPPAMAAPKDDGFLNGSCSGLDEEASGPERPPALLQEEWETVM
As to B2, in the experiment on COS-7 cells [2], the “time of maximal agonist-induced signaling” value was 40 min.

B3: hP1R-[R^11]-Tether(1–11): Made from hTether-1 by inserting Asn10-Arg11 between His9 and first Gly of linker (protein)
chain: MGTARIAPGLALLLCCPVLSSAYAVSEIQLMHNRGGGGEVFDRLGMIYTVGYSVSLASLTVAVLILAYFRRLHCTRNYIHMHLFLSFMLRAVSIFVKDAVLYSGATLDEAERLTEEELRAIAQAPPPPATAAAGYAGCRVAVTFFLYFLATNYYWILVEGLYLHSLIFMAFFSEKKYLWGFTVFGWGLPAVFVAVWVSVRATLANTGCWDLSSGNKKWIIQVPILASIVLNFILFINIVRVLATKLRETNAGRCDTRQQYRKLLKSTLVLMPLFGVHYIVFMATPYTEVSGTLWQVQMHYEMLFNSFQGFFVAIIYCFCNGEVQAEIKKSWSRWTLALDFKRKARSGSSSYSYGPMVSHTSVTNVGPRVGLGLPLSPRLLPTATTNGHPQLPGHAKPGTPALETLETTPPAMAAPKDDGFLNGSCSGLDEEASGPERPPALLQEEWETVM
Turning to B3, in the experiment on COS-7 cells [1], the “basal signaling compared with maximum agonist-stimulated response of hP1R-WT” value is on record as “approached the maximum response attained by hP1R-WT”, the “time of maximum level of basal cAMP signaling” value is 40 min and the “level of basal cAMP signaling” value is reported as “increased still further”. In addition, the “increase in basal cAMP signaling” value in the experiment with COS-7 cells [1] (comparator not restated) stood at 20 fold. The “basal signaling compared with maximum agonist-stimulated response of hP1R-WT” value in the experiment on COS-7 cells [1] (listed as hP1R-[R^11]Tether-(1–11)) is reported as “approached the maximum agonist-stimulated response attained by hP1R-wildtype”. The “time of maximal agonist-induced signaling” value in the experiment on COS-7 cells [2] stood at 40 min.

B4: hP1R-Tether(1–10): hP1R-Tether construct with the ligand chain extended to position 10 (protein)
chain: EIQLMHNGGGGEVFDRLGMIYTVGYSVSLASLTVAVLILAYFRRLHCTRNYIHMHLFLSFMLRAVSIFVKDAVLYSGATLDEAERLTEEELRAIAQAPPPPATAAAGYAGCRVAVTFFLYFLATNYYWILVEGLYLHSLIFMAFFSEKKYLWGFTVFGWGLPAVFVAVWVSVRATLANTGCWDLSSGNKKWIIQVPILASIVLNFILFINIVRVLATKLRETNAGRCDTRQQYRKLLKSTLVLMPLFGVHYIVFMATPYTEVSGTLWQVQMHYEMLFNSFQGFFVAIIYCFCNGEVQAEIKKSWSRWTLALDFKRKARSGSSSYSYGPMVSHTSVTNVGPRVGLGLPLSPRLLPTATTNGHPQLPGHAKPGTPALETLETTPPAMAAPKDDGFLNGSCSGLDEEASGPERPPALLQEEWETVM
Consider B4, for which the “level of basal cAMP signaling” value in the experiment with COS-7 cells [1] is given as “moderate, but significant, improvements”.

B5: hP1R-Tether(1–9): tethered human PTH-1 receptor: PTH(1–9) and four glycine spacer inserted between residues 23 and 182 of hP1R-delNT (protein)
chain: MGTARIAPGLALLLCCPVLSSAYAVSEIQLMHGGGGEVFDRLGMIYTVGYSVSLASLTVAVLILAYFRRLHCTRNYIHMHLFLSFMLRAVSIFVKDAVLYSGATLDEAERLTEEELRAIAQAPPPPATAAAGYAGCRVAVTFFLYFLATNYYWILVEGLYLHSLIFMAFFSEKKYLWGFTVFGWGLPAVFVAVWVSVRATLANTGCWDLSSGNKKWIIQVPILASIVLNFILFINIVRVLATKLRETNAGRCDTRQQYRKLLKSTLVLMPLFGVHYIVFMATPYTEVSGTLWQVQMHYEMLFNSFQGFFVAIIYCFCNGEVQAEIKKSWSRWTLALDFKRKARSGSSSYSYGPMVSHTSVTNVGPRVGLGLPLSPRLLPTATTNGHPQLPGHAKPGTPALETLETTPPAMAAPKDDGFLNGSCSGLDEEASGPERPPALLQEEWETVM
In the case of B5, the “enhancement in the basal level of cAMP relative to hde1NT” value in the experiment with COS-7 cells [1] (absence of any agonist peptide) is listed as roughly 5 fold.
